Source: paper PMC10569793

Legend:
[1] = molecular target: complex V (D. melanogaster), monomer (D. melanogaster (endogenous in fly mitochondria)); test: native gel or EMSA; complexome profiling: wild-type fly mitochondria solubilised with 6 g digitonin/g protein (50 mM NaCl, 5 mM 6-aminohexanoic acid, 1 mM EDTA, 50 mM imidazole/HCl pH 7.0), 4-16% gradient BN-PAGE, lane cut into 60 slices, LC-MS/MS, label-free quantification
[2] = molecular target: complex V (D. melanogaster), monomer (D. melanogaster (endogenous in fly mitochondria)); test: native gel or EMSA; BN-PAGE (NativePAGE 3-12% Bis-Tris) of wild-type fly mitochondria solubilised with 4 mg digitonin per mg protein; Coomassie stain and in-gel activity of CI and CIV
[3] = molecular target: mitochondrial respiratory chain complex IV (D. melanogaster) (D. melanogaster (endogenous in fly mitochondria)); test: native gel or EMSA; BN-PAGE (NativePAGE 3-12% Bis-Tris) of mitochondria solubilised with 4 mg DDM per mg protein; Coomassie, in-gel activity, western blot of subunits; wild-type, Coa8 KO, Coa8 RNAi, strong Bcs1 RNAi and Ndufs4 RNAi flies or larvae with their controls
[4] = molecular target: mitochondrial respiratory chain complex IV (D. melanogaster) (D. melanogaster (endogenous in fly mitochondria)); test: native gel or EMSA; BN-PAGE (NativePAGE 3-12% Bis-Tris) of wild-type fly mitochondria solubilised with 4 mg digitonin per mg protein; Coomassie stain and in-gel activity of CI and CIV

Row | Substance | stoichiometry N [1] | stoichiometry N [2] | stoichiometry N [3] | stoichiometry N [4]
1 | complex V (D. melanogaster), monomer | 2 | 2 | – | –
2 | mitochondrial respiratory chain complex IV (D. melanogaster) | – | – | 2 | 2
